T1: CAPRIN-1 protein expressed on the membrane surface of human cancer cells (human, UniProt Q14444 2-709)
T1 sequence (looked up): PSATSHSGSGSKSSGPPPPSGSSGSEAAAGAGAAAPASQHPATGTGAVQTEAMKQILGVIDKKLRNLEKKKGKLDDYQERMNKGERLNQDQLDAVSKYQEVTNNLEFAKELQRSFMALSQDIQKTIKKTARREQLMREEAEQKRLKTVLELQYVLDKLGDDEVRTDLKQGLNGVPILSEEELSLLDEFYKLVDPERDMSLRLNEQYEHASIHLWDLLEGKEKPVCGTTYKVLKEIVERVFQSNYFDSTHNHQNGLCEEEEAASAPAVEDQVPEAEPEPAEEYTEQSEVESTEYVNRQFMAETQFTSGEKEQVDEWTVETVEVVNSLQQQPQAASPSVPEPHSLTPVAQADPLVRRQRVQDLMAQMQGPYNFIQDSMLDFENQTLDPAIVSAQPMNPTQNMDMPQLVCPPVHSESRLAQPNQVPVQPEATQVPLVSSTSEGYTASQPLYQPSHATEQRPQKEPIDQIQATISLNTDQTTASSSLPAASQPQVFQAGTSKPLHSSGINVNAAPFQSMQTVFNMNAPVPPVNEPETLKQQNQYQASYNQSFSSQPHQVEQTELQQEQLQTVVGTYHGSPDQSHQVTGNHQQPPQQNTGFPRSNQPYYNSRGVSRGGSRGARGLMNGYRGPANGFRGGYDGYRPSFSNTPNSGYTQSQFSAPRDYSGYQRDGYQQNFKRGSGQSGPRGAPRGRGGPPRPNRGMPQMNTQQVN


molecular target: T1, CAPRIN-1 protein expressed on the …; assay: cell-based or functional assay

Row | Binder | ADCC cytotoxic activity (51Cr release) on 22Rv1 [%] | ADCC cytotoxic activity (51Cr release) on A-673 [%] | ADCC cytotoxic activity (51Cr release) on BT-474 [%] | ADCC cytotoxic activity (51Cr release) on Caki-2 [%] | ADCC cytotoxic activity (51Cr release) on FaDu [%] | ADCC cytotoxic activity (51Cr release) on G-361 [%] | ADCC cytotoxic activity (51Cr release) on HEC-1-A [%] | ADCC cytotoxic activity (51Cr release) on HT-29 [%] | ADCC cytotoxic activity (51Cr release) on HT-1080 [%] | ADCC cytotoxic activity (51Cr release) on HT-1376 [%]
1 | humanized antibody #1 (antibody, V domains shown) VH: EVQLVESGGGLVQPGGSLRLSCAASGFSLSSHSLGWVRQAPGKGLEWIGDIRSGGSAYYANWAKGRFTISRDNSKNTLYLQMNSLRAEDTAVYYCTRTNGPSDLTNRLDLWGQGTLVTVSS VL: AIQMTQSPSSLSASVGDRVTINCQASQSLYNNENLAWFQQKPGKAPKRLIYGASTLASGVSSRFSGSGSGTDFTLTISSLQPEDFAIYYCLGEFSCGSADCFAFGGGTKVEIK | ≥ 38 | ≥ 40 | ≥ 46 | ≥ 26 | ≥ 35 | ≥ 15 | ≥ 40 | ≥ 35 | ≥ 20 | ≥ 28
2 | humanized antibody #3 (antibody, V domains shown) VH: EVQLVESGGGLVQPGGSLRLSCAASGFSLSSHSLGWVRQAPGKGLEWIGDIRSGGSAYYANWAKGRFTISRDNSKNTLYLQMNSLRAEDTAVYYCTRTNGPSDLTNRLDLWGQGTLVTVSS VL: EQVLTQSPSSLSASVGDRVTINCQASQSLYNNENLAWFQQKPGKVPKRLIYGASTLASGVSSRFSGSGSGTEFTLTISNLQPEDFAIYYCLGEFSCGSADCFAFGGGTKVEIK | ≥ 45 | ≥ 46 | ≥ 50 | ≥ 33 | ≥ 40 | ≥ 21 | ≥ 45 | ≥ 40 | ≥ 25 | ≥ 40
3 | humanized antibody #4 (antibody, V domains shown) VH: EVQLVESGGGLVQPGGSLRLSCAASGFSLSSHSLGWVRQAPGKGLEWIGDIRSGGSAYYANWAKGRFTISRDNSKNTLYLQMNSLRAEDTAVYFCTRTNGPSDLTNRLDLWGQGTLVTVSS VL: EIVLTQSPSSLSASVGDRVTINCQASQSLYNNENLAWFQQKPGKVPKRLIYGASTLASGVSSRFSGSGSGTEFTLTISNLQPEDFATYYCLGEFSCGSADCFAFGGGTKVEIK | ≥ 45 | ≥ 46 | ≥ 50 | ≥ 33 | ≥ 40 | ≥ 21 | ≥ 45 | ≥ 40 | ≥ 25 | ≥ 40
4 | humanized antibody #5 (antibody, V domains shown) VH: EVQLVESGGGLVQPGGSLRLSCAASGFSLSSHSLGWVRQAPGKGLEWIGDIRSGGSAYYANWAKGRFTISRDNSKNTLYLQMNSLRAEDTAVYFCTRTNGPSDLTNRLDLWGQGTLVTVSS VL: EQVLTQSPSSLSASVGDRVTINCQASQSLYNNENLAWFQQKPGKVPKRLIYGASTLASGVSSRFSGSGSGTEFTLTISNLQPEDFAIYYCLGEFSCGSADCFAFGGGTKVEIK | ≥ 45 | ≥ 46 | ≥ 50 | ≥ 33 | ≥ 40 | ≥ 21 | ≥ 45 | ≥ 40 | ≥ 25 | ≥ 40

same assay, conditions: not given

Row | Binder | ADCC cytotoxic activity (51Cr release) on Hep3B [%] | ADCC cytotoxic activity (51Cr release) on IM-9 [%] | ADCC cytotoxic activity (51Cr release) on MDA-MB-361 [%] | ADCC cytotoxic activity (51Cr release) on NCI-H2452 [%] | ADCC cytotoxic activity (51Cr release) on NCI-N87 [%] | ADCC cytotoxic activity (51Cr release) on NT/D1 [%] | ADCC cytotoxic activity (51Cr release) on OCI-AML5 [%] | ADCC cytotoxic activity (51Cr release) on OE33 [%] | ADCC cytotoxic activity (51Cr release) on Panc10.5 [%] | ADCC cytotoxic activity (51Cr release) on QG56 [%]
5 | humanized antibody #1 (antibody, V domains shown) VH: EVQLVESGGGLVQPGGSLRLSCAASGFSLSSHSLGWVRQAPGKGLEWIGDIRSGGSAYYANWAKGRFTISRDNSKNTLYLQMNSLRAEDTAVYYCTRTNGPSDLTNRLDLWGQGTLVTVSS VL: AIQMTQSPSSLSASVGDRVTINCQASQSLYNNENLAWFQQKPGKAPKRLIYGASTLASGVSSRFSGSGSGTDFTLTISSLQPEDFAIYYCLGEFSCGSADCFAFGGGTKVEIK | ≥ 21 | ≥ 27 | ≥ 40 | ≥ 31 | ≥ 34 | ≥ 25 | ≥ 15 | ≥ 30 | ≥ 24 | ≥ 38
6 | humanized antibody #3 (antibody, V domains shown) VH: EVQLVESGGGLVQPGGSLRLSCAASGFSLSSHSLGWVRQAPGKGLEWIGDIRSGGSAYYANWAKGRFTISRDNSKNTLYLQMNSLRAEDTAVYYCTRTNGPSDLTNRLDLWGQGTLVTVSS VL: EQVLTQSPSSLSASVGDRVTINCQASQSLYNNENLAWFQQKPGKVPKRLIYGASTLASGVSSRFSGSGSGTEFTLTISNLQPEDFAIYYCLGEFSCGSADCFAFGGGTKVEIK | ≥ 25 | ≥ 30 | ≥ 45 | ≥ 39 | ≥ 38 | ≥ 30 | ≥ 18 | ≥ 33 | ≥ 30 | ≥ 42
7 | humanized antibody #4 (antibody, V domains shown) VH: EVQLVESGGGLVQPGGSLRLSCAASGFSLSSHSLGWVRQAPGKGLEWIGDIRSGGSAYYANWAKGRFTISRDNSKNTLYLQMNSLRAEDTAVYFCTRTNGPSDLTNRLDLWGQGTLVTVSS VL: EIVLTQSPSSLSASVGDRVTINCQASQSLYNNENLAWFQQKPGKVPKRLIYGASTLASGVSSRFSGSGSGTEFTLTISNLQPEDFATYYCLGEFSCGSADCFAFGGGTKVEIK | ≥ 25 | ≥ 30 | ≥ 45 | ≥ 39 | ≥ 38 | ≥ 30 | ≥ 18 | ≥ 33 | ≥ 30 | ≥ 42
8 | humanized antibody #5 (antibody, V domains shown) VH: EVQLVESGGGLVQPGGSLRLSCAASGFSLSSHSLGWVRQAPGKGLEWIGDIRSGGSAYYANWAKGRFTISRDNSKNTLYLQMNSLRAEDTAVYFCTRTNGPSDLTNRLDLWGQGTLVTVSS VL: EQVLTQSPSSLSASVGDRVTINCQASQSLYNNENLAWFQQKPGKVPKRLIYGASTLASGVSSRFSGSGSGTEFTLTISNLQPEDFAIYYCLGEFSCGSADCFAFGGGTKVEIK | ≥ 25 | ≥ 30 | ≥ 45 | ≥ 39 | ≥ 38 | ≥ 30 | ≥ 18 | ≥ 33 | ≥ 30 | ≥ 42

same assay, conditions: not given

Row | Binder | ADCC cytotoxic activity (51Cr release) on RD-ES [%] | ADCC cytotoxic activity (51Cr release) on RPM11666 [%] | ADCC cytotoxic activity (51Cr release) on Ramos [%] | ADCC cytotoxic activity (51Cr release) on SKOV3 [%] | ADCC cytotoxic activity (51Cr release) on T24 [%] | ADCC cytotoxic activity (51Cr release) on TGBC14TKB [%] | ADCC cytotoxic activity (51Cr release) on TT [%] | ADCC cytotoxic activity (51Cr release) on U-87MG [%]
9 | humanized antibody #1 (antibody, V domains shown) VH: EVQLVESGGGLVQPGGSLRLSCAASGFSLSSHSLGWVRQAPGKGLEWIGDIRSGGSAYYANWAKGRFTISRDNSKNTLYLQMNSLRAEDTAVYYCTRTNGPSDLTNRLDLWGQGTLVTVSS VL: AIQMTQSPSSLSASVGDRVTINCQASQSLYNNENLAWFQQKPGKAPKRLIYGASTLASGVSSRFSGSGSGTDFTLTISSLQPEDFAIYYCLGEFSCGSADCFAFGGGTKVEIK | ≥ 31 | ≥ 30 | ≥ 15 | ≥ 27 | ≥ 30 | ≥ 25 | ≥ 30 | ≥ 24
10 | humanized antibody #3 (antibody, V domains shown) VH: EVQLVESGGGLVQPGGSLRLSCAASGFSLSSHSLGWVRQAPGKGLEWIGDIRSGGSAYYANWAKGRFTISRDNSKNTLYLQMNSLRAEDTAVYYCTRTNGPSDLTNRLDLWGQGTLVTVSS VL: EQVLTQSPSSLSASVGDRVTINCQASQSLYNNENLAWFQQKPGKVPKRLIYGASTLASGVSSRFSGSGSGTEFTLTISNLQPEDFAIYYCLGEFSCGSADCFAFGGGTKVEIK | ≥ 40 | ≥ 36 | ≥ 18 | ≥ 31 | ≥ 33 | ≥ 30 | ≥ 35 | ≥ 29
11 | humanized antibody #4 (antibody, V domains shown) VH: EVQLVESGGGLVQPGGSLRLSCAASGFSLSSHSLGWVRQAPGKGLEWIGDIRSGGSAYYANWAKGRFTISRDNSKNTLYLQMNSLRAEDTAVYFCTRTNGPSDLTNRLDLWGQGTLVTVSS VL: EIVLTQSPSSLSASVGDRVTINCQASQSLYNNENLAWFQQKPGKVPKRLIYGASTLASGVSSRFSGSGSGTEFTLTISNLQPEDFATYYCLGEFSCGSADCFAFGGGTKVEIK | ≥ 40 | ≥ 36 | ≥ 18 | ≥ 31 | ≥ 33 | ≥ 30 | ≥ 35 | ≥ 29
12 | humanized antibody #5 (antibody, V domains shown) VH: EVQLVESGGGLVQPGGSLRLSCAASGFSLSSHSLGWVRQAPGKGLEWIGDIRSGGSAYYANWAKGRFTISRDNSKNTLYLQMNSLRAEDTAVYFCTRTNGPSDLTNRLDLWGQGTLVTVSS VL: EQVLTQSPSSLSASVGDRVTINCQASQSLYNNENLAWFQQKPGKVPKRLIYGASTLASGVSSRFSGSGSGTEFTLTISNLQPEDFAIYYCLGEFSCGSADCFAFGGGTKVEIK | ≥ 40 | ≥ 36 | ≥ 18 | ≥ 31 | ≥ 33 | ≥ 30 | ≥ 35 | ≥ 29

Source: patent US20160297889A1 (TORAY INDUSTRIES, published 2016)
